Results: patent US20240075137A1 (COMPUGEN, published 2024)

Columns and labels:
[1] = molecular target: T1, cyno TIGIT on cells (cynomolgus macaque); test: flow cytometry of fab; MFI on cyno TIGIT over-expressing Expi293 / MFI on parental Expi293
T1 construct: whole, on cells; also called Expi293 cyno TIGIT over-expressing cells

[2] = molecular target: T2, human TIGIT on cells (human, UniProt Q495A1 22-141); test: flow cytometry of fab; MFI on human TIGIT over-expressing Expi293 / MFI on parental Expi293
T2 construct: also called Expi293 human TIGIT over-expressing cells
T2 sequence: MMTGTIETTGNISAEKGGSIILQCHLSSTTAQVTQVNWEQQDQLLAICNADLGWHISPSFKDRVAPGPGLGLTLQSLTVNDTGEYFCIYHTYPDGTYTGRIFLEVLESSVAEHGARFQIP

[3] = molecular target: T3, human TIGIT ECD with C-terminal polyhistidine tag (human, UniProt Q495A1 22-141); test: affinity maturation screen of fabs, SPR on hTIGIT-HIS
T3 construct: in-house or Sino Biological; also called hTIGIT-HIS; human TIGIT-HIS
T3 sequence: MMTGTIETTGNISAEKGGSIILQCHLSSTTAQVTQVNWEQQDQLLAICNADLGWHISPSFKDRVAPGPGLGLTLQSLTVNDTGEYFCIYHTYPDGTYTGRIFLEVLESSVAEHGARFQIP

[4] = molecular target: T2, human TIGIT on cells; test: FACS KD on Expi293 human TIGIT over-expressing cells; ± 95% CI of the fit
[5] = molecular target: T1, cyno TIGIT on cells; test: FACS KD on Expi293 cyno TIGIT over-expressing cells; ± 95% CI of the fit
[6] = molecular target: T3, human TIGIT ECD with C-terminal …; test: SPR (ProteOn), mAb captured, human TIGIT injected
Procedure: (§1) All experiments were performed using a ProteOn XPR 36 instrument at 22° C. First, high density capture surfaces were prepared with goat anti human Fc polyclonal antibody (Thermo #H10500) and rabbit anti mouse antibodies (GE Healthcare #BR100838), respectively, immobilized over all vertical capture lanes and horizontal interspots on separate GLC chips using standard amine coupling. Typical immobilization levels for the anti-human capture pAb and the anti-mouse capture antibody for each GLC chip were around 5000 RU. Human TIGIT was obtained from Sino Biologicals while mouse TIGIT monomer and cyno TIGIT monomer were prepared in-house.
(§2) Each mAb was diluted to ˜0.5 μg/mL in running buffer which was 1×PBST with filtered BSA added to a final concentration of 100 μg/mL. For each “single-shot kinetics” cycle on the ProteOn instrument, a different mAb was captured over one of the six unique vertical capture lanes for approximately 1.5-2.5 minutes. After switching the buffer flow of the ProteOn to the horizontal direction, capture surfaces were stabilized for approximately 15-20 minutes. […] An identical buffer injection preceded each series of injected antigen for double-referencing. […] The sensorgrams of TIGIT antigen injected over captured mAbs were processed using a ProteOn version of Scrubber and were fit to a 1:1 kinetic binding model including a term for mass transport.

[7] = molecular target: T2, human TIGIT on cells; test: FACS blocking: Expi293 human TIGIT cells pre-incubated with mAb, then human PVR-m2aFc; lower gMFI = more blocking
[8] = molecular target: T4, Mouse TIGIT-His (mouse, UniProt P86176); test: SPR (ProteOn), mAb captured, mouse TIGIT monomer injected
T4 construct: also called mouse TIGIT monomer (prepared in-house)
T4 sequence (soluble monomer with His tag, looked up): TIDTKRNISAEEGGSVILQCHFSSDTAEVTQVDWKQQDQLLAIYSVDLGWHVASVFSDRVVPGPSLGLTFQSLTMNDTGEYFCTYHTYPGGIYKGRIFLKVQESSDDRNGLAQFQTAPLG
Procedure: as §1, §2

[9] = molecular target: T2, human TIGIT on cells; test: FACS blocking of human PVR-m2aFc binding to human TIGIT OE Expi293 cells; binding site concentration; n=1
[10] = molecular target: T2, human TIGIT on cells; test: FACS blocking of human PVR-m2aFc binding to human TIGIT OE Expi293 cells; binding site concentration; n=2
[11] = molecular target: T1, cyno TIGIT on cells; test: FACS titration of AF647-labelled mAb on cyno effector memory CD8+ T cells, Cyno Donor 3; isotype gMFI subtracted
[12] = molecular target: T3, human TIGIT ECD with C-terminal …; test: KinExA equilibrium, His-tagged human TIGIT, n = 1
Procedure: KinExA equilibrium experiments were performed using a KinExA 3200 instrument (Sapidyne Instruments, Boise, ID, USA) at 22° C. Recombinant His-tagged human TIGIT was obtained from Sino Biologicals (Beijing, China) and reconstituted into 1×PBS. All antigen and antibody samples for KinExA analyses were prepared in degassed PBST buffer (PBS with 0.05% tween 20) with 100 ug/mL filtered BSA and 0.02% sodium azide. […] For each KinExA experiment, ˜20 lag of human TIGIT was diluted into 1 mL of 50 mM sodium carbonate, pH 9.2 which was added directly to 50 mg of azlactone beads (Ultralink Support, Thermo Scientific, Rockford, IL, USA) and rocked overnight at 4° C. After rocking, the beads were rinsed once with 1 M Tris buffer, pH 8.5, containing 10 mg/mL BSA and rocked for one hour at room temperature in the same buffer. Coupled beads were added to the bead reservoir in the KinExA instrument and diluted to ˜30 mL with 1×HBS-N (0.01 M Hepes, 0.15M NaCl, GE Healthcare) containing 0.02% sodium azide which was also the running buffer for the KinExA instrument. All antigen-coupled beads were used immediately after preparation.
The volume flowed through the bead pack for each equilibrated sample for all experiments ranged from 4 mL to 11 mL at a flow rate of 0.25 mL/min.

[13] = molecular target: T1, cyno TIGIT on cells; test: FACS titration of AF647-labelled mAb on cyno effector memory CD8+ T cells, Cyno Donor 1; isotype gMFI subtracted
[14] = molecular target: T2, human TIGIT on cells; test: FACS titration of AF647-labelled mAb on human effector memory CD8+ T cells, Donor 334
[15] = molecular target: T5, Cyno TIGIT-His; test: SPR (ProteOn), Cyno TIGIT-His
T5 construct: also called cyno TIGIT monomer (prepared in-house); C-terminal HIS-tagged cyno TIGIT ECD recombinant protein
T5 sequence (ECD with C-terminal His tag, as listed by the source): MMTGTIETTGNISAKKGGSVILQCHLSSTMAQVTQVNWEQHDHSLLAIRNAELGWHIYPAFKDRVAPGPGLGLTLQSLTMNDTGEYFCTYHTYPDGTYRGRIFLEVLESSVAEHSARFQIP

[16] = molecular target: T1, cyno TIGIT on cells; test: FACS titration on cyno TIGIT OE Expi293 cells, binding site concentration; ± 95% CI; 'Fit: Good/Excellent'
Procedure: AF647-labeled goat anti-human F(ab′) (Jackson Immunoresearch) was added to the cells to detect binding of anti-TIGIT antibodies. The gMFI of the anti-TIGIT antibodies bound to the cyno TIGIT over-expressing Expi293 cells (black line), and the parental Expi293 cells (grey line) are shown.

[17] = molecular target: T2, human TIGIT on cells; test: FACS titration on human TIGIT OE Expi293 cells, binding site concentration; ± 95% CI; 'Fit: Excellent'
Procedure: AF647-labeled goat anti-human F(ab′) (Jackson Immunoresearch) was added to the cells to detect binding of anti-TIGIT antibodies.

[18] = molecular target: T3, human TIGIT ECD with C-terminal …; test: SPR (ProteOn), Human TIGIT-His
[19] = molecular target: T2, human TIGIT on cells; test: FACS titration of AF647-labelled mAb on human effector memory CD8+ T cells, Donor 321
[20] = molecular target: T2, human TIGIT on cells; test: FACS titration of AF647-labelled mAb on human effector memory CD8+ T cells, Donor 322
[21] = molecular target: T4, Mouse TIGIT-His; test: SPR (ProteOn), Mouse TIGIT-His
[22] = molecular target: T6, human PVRIG on cells (human, UniProt Q6DKI7 1-326); test: FACS on Jurkat cells; column head 'Kd', unit nM from legend paragraph 75
T6 construct: whole, on cells; over-expressed on HEK cells or endogenous on Jurkat and CD8 T cells; also called hPVRIG; HEK hPVRIG cells
T6 sequence (looked up): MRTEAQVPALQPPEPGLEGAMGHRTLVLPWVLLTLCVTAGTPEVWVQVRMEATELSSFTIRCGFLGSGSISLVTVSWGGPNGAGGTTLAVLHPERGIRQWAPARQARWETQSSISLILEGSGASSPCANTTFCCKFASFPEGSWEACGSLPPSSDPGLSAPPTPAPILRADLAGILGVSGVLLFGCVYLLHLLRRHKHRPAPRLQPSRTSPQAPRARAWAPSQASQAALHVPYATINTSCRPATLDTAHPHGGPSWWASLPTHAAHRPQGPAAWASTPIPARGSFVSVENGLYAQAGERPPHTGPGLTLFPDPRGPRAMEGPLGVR

[23] = molecular target: T6, human PVRIG on cells; test: FACS on HEK hPVRIG cells; column head 'Kd', unit nM from legend paragraph 75

B1: CPA.9.083 (fab) (Fab, V domains shown)
VH: EVQLVETGGGLIQPGRSLRLSCAASGFTFSSYAMHWVRQAPGKGLEWVAVISYDGTPVYYADSVKGRFTISRDNSKNTLYLQMNSLRAEDTAVYYCARDPLPLHYYGMDVWGQGTTVTVSS
VL: QSALTQPRSASGNPGQRVTISCSGSSSNMGRRPVNWYQQIPGTAPKLLIYSQNQRPSGVPDRFSGSQSGTSASLTISGLQSEDEAEYFCAVWDGDRRSLQLGGGTQLAVLG
notes: variant of CPA.9.027 screened as fab
B1 was tested, and the “MFIr (OE/Par) cTIGIT” value [1] was 97, the “MFIr (OE/Par) hTIGIT” value [2] was 170 and the “fold improvement in binding over CPA.9.027” value (“fold improvement in binding” below) [3] was ≥ 25 fold.

B2: CPA.9.089 (fab) (Fab, V domains shown)
VH: EVQLVETGGGLIQPGRSLRLSCAASGFTFSSYAMHWVRQAPGKGLEWVAVISYDRTPVYYADSVKGRFTISRDNSKNTLYLQMNSLRAEDTAVYYCARDPLPLHYYGMDVWGQGTTVTVSS
VL: QSALTQPRSASGNPGQRVTISCSGSSSNMGRRPVNWYQQIPGTAPKLLIYSQNQRPSGVPDRFSGSQSGTSASLTISGLQSEDEAEYFCATWDDSLPRLNFGGGTKLAVL
notes: as for B1
B2 was tested, and the “MFIr (OE/Par) cTIGIT” value [1] was 52, the “MFIr (OE/Par) hTIGIT” value [2] was 110 and the “fold improvement in binding” value [3] was ≥ 25 fold.

B3: CPA.9.027 hIgG4 (antibody, V domains shown)
VH: EVQLVETGGGLIQPGRSLRLSCAASGFTFSSYAMHWVRQAPGKGLEWVAVISYDGSNKYYADSVKGRFTISRDNSKNTLYLQMNSLRAEDTAVYYCARDPLPLHYYGMDVWGQGTTVTVSS
VL: QSALTQPRSASGNPGQRVTISCSGSSSNMGRRPVNWYQQIPGTAPKLLIYSQNQRPSGVPDRFSGSQSGTSASLTISGLQSEDEAEYFCAVWDDSLSSLQLGGGTQLAVLG
notes: phage-derived anti-TIGIT, human IgG4; also called CPA.9.027-H4
With B3 the Kd [4] was 0.17 nM, the Kd [5] was 2.25 nM and the Kd [6] was 0.13 nM. For the same binder, the “gMFI of bound PVR-m2aFc at 266 pM mAb” value [7] was 529, the “gMFI of bound PVR-m2aFc at 1.3 nM mAb” value [7] was 253 and the “gMFI of bound PVR-m2aFc at 6.7 nM mAb” value [7] was 208. For the same binder, the Kd [8] was 80 nM.

B4: CPA.9.083.H4(S241P) (antibody, human IgG4, V domains shown)
VH: EVQLVETGGGLIQPGRSLRLSCAASGFTFSSYAMHWVRQAPGKGLEWVAVISYDGTPVYYADSVKGRFTISRDNSKNTLYLQMNSLRAEDTAVYYCARDPLPLHYYGMDVWGQGTTVTVSS
VL: QSALTQPRSASGNPGQRVTISCSGSSSNMGRRPVNWYQQIPGTAPKLLIYSQNQRPSGVPDRFSGSQSGTSASLTISGLQSEDEAEYFCAVWDGDRRSLQLGGGTQLAVLG
With B4 the IC50 [9] was 0.47 nM, the IC50 [10] was 0.22 nM and the Kd [11] was 0.88 nM. The Kd [12] was 0.000694 nM, the Kd [13] was 0.82 nM and the Kd [14] was 0.13 nM. The binding result [15] was “binds”, the Kd [16] was 0.49 nM and the Kd [17] was 0.39 nM. It also gave a Kd [18] of 0.0017 nM, a Kd [19] of 0.13 nM and a Kd [20] of 0.12 nM. The Kd [21] was 0.434 nM.

B5: CPA.9.093 (fab) (Fab, V domains shown)
VH: EVQLVETGGGLIQPGRSLRLSCAASGFTFSSYAMHWVRQAPGKGLEWVAVISYEGDRKYYADSVKGRFTISRDNSKNTLYLQMNSLRAEDTAVYYCARDPLPLHYYGMDVWGQGTTVTVSS
VL: QSALTQPRSASGNPGQRVTISCSGSSSNMGRRPVNWYQQIPGTAPKLLIYSQNQRPSGVPDRFSGSQSGTSASLTISGLQSEDEAEYFCATWDDSTPHGVFGGGTKLAVL
notes: as for B1
For B5, the “MFIr (OE/Par) cTIGIT” value [1] was 60, the “MFIr (OE/Par) hTIGIT” value [2] was 80 and the “fold improvement in binding” value [3] was ≥ 25 fold.

B6: CPA.9.049 hIgG4 (antibody, V domains shown)
VH: EVQLVETGGGLIQPGRSLRLSCAASGFTFSSYAMHWVRQAPGKGLEWVAVISYDGSNKYYADSVKGRFTISRDNSKNTLYLQMNSLRAEDTAVYYCARDPLPLHYYGMDVWGQGTTVTVSS
VL: QSALTQPRSASGNPGQRVTISCSGSSSNMGRRPVNWYQQIPGTAPKLLIYSQNQRPSGVPDRFSGSQSGTSASLTISGLQSEDEAEYFCAVWDDSLFSLLLGGGTQLAVLG
notes: phage-derived anti-TIGIT, human IgG4; also called CPA.9.049-H4
For B6, the Kd [4] was 0.26 nM, the Kd [5] was 1.88 nM and the Kd [6] was 0.0945 nM. The “gMFI of bound PVR-m2aFc at 266 pM mAb” value [7] was 511, the “gMFI of bound PVR-m2aFc at 1.3 nM mAb” value [7] was 276 and the “gMFI of bound PVR-m2aFc at 6.7 nM mAb” value [7] was 215. The Kd [8] was 82.7 nM.

B7: CPA.9.086 (fab) (Fab, V domains shown)
VH: EVQLVETGGGLIQPGRSLRLSCAASGFTFSSYAMHWVRQAPGKGLEWVAVISYAGEVKYYADSVKGRFTISRDNSKNTLYLQMNSLRAEDTAVYYCARDPLPLHYYGMDVWGQGTTVTVSS
VL: QSALTQPRSASGNPGQRVTISCSGSSSNMGRRPVNWYQQIPGTAPKLLIYSQNQRPSGVPDRFSGSQSGTSASLTISGLQSEDEAEYFCAVWDDIGRVLQLGGGTQLAVLG
notes: as for B1
With B7 the “MFIr (OE/Par) cTIGIT” value [1] was 34, the “MFIr (OE/Par) hTIGIT” value [2] was 36 and the “fold improvement in binding” value [3] was ≥ 25 fold.

B8: CPA.7.021 (antibody, V domains shown)
VH: EVQLVESGGGVVKPGGSLRLSCAASGFTFGTSSMNWVRQAPGKGLEWVAVISFDGTEIHYADSVKGRFTISRDNSKSTVFLQMNSLRPDDTALYYCAKGSGNIYFYSGMDVWGQGTTVTVSS
VL: DIQMTQSPSTLSASVGDRVTITCRAGQSISGWLAWFQQKPGKAPNLLIYETSTLESGVPSRFSGSGSGTEYTLTISSLQPDDFATYYCQQYYSYPLTFGQGTKVEIKR
With B8 the Kd [22] was 3.18 nM and the Kd [23] was 2.94 nM.

B9: CHA.9.547.13.H4(S241P) (antibody, human IgG4, V domains shown)
VH: EVQLVESGGGLVQPGGSLRLSCAASGFTFSSYIMSWVRQAPGKGLEWVATISGGGTNTYYADSVKGRFTISRDNSKNTLYLQMNSLRAEDTAVYYCAKWLLSYYAMDYWGQGTLVTVSS
VL: DIQMTQSPSSLSASVGDRITITCRASQNINVWLSWYQQKPGKAPKLLIYKASKSHTGVPSRFSGSGSGTDFTLTISSLQPEDFATYYCQQGQSYPYTFGQGTKLEIK
notes: humanized hybridoma antibody, human IgG4 (S241P)
With B9 the IC50 [9] was 0.26 nM, the IC50 [10] was 0.21 nM and the Kd [12] was 0.0188 nM. It also gave a Kd [14] of 1.2 nM, a Kd [16] of 1.67 nM and a Kd [17] of 0.71 nM. It also gave a Kd [19] of 2 nM and a Kd [20] of 1.9 nM.
